How the values were obtained:
Type in all cases: physicochemical
[1] = Gelation kinetics of 0.5% RADA16 treated with cations and anions
Procedure: Rheological measurements of gelation kinetics of 0.5% RADA16 (SEQ ID NO:1)+NaCl, KCl, and CaCl2) were evaluated. A solution of 0.5% RADA16 (SEQ ID NO:1) was prepared and gelation kinetics were observed by treatment with several cations (e.g., Nat, Ca^2+, K^+) and anions (e.g., Cl^−, CO3^2−, PO4^3−, SO4^2−). It was determined how long it will take for the peptide mixtures to gel and how to control that gelation time by varying the cation/anion type and concentration. […] In vivo and in vitro qualitative experiments and the resulting observations were supportive of these conclusions.

[2] = Rheological measurements of RADA16 with NaCl, KCl, CaCl2 (stiffness, reversibility)
Procedure: In a rheological comparison of […] (SEQ ID NO:1)+NaCl, KCl, and CaCl2), solutions of 0.5% RADA16 (SEQ ID NO:1) mixed with 0.005, 0.05, 0.125, 0.25, 0.5, and 1 M NaCl, KCl, and CaCl2) were prepared. The anion, chloride (Cl−), was kept the same to observe the effect of the cations, sodium (Na+), potassium (K+), and calcium (Ca2+). FIG. 21 provides a basic understanding of how varying the cations of a salt solution effects the viscoelastic properties and the stiffness of self-assembling peptides. […] This should be because Ca has […] higher ionic strength than Na and K at the same molar concentrations. Therefore, influence of salts on the peptide solution is more related to their ionic strength rather than their molar concentration, as shown in FIGS. 17-18 and Table 2a-c. In some embodiments, there is a correlation between the properties of the peptide solutions with salts based on the concentration of the salt.
Rheological measurements of stiffness of 2.5% RADA16 (SEQ ID NO:1) and 2.5% RADA16 (SEQ ID NO:1)+0.25 M CaCl2) was evaluated.
Rheological measurements of reversibility of 0.5% RADA16 (SEQ ID NO:1) solution with +0.125, 0.25, and 0.5 M CaCl2) were evaluated. Solutions of 0.5% RADA16 (SEQ ID NO:1) mixed with 0.125, 0.25, and 0.5 M CaCl2) were prepared. The structure of the self-assembled peptide solutions were disrupted thoroughly by application of mechanical stress through vortexing and sonication. The mixtures were placed at room temperature for 48 hours to allow self-assembly to take place. […] FIG. 23A presents raw rheological data of the control peptide solution with salts and the perturbed peptide solution while FIG. 23B provides a comparison of stiffness of the control peptide solution and the perturbed peptide solution.

[3] = Mechanical properties of IEIK13 with and without Indigo Carmine; details: 1.5% IEIK13; 0.00585% Indigo Carmine; 24 hours post reconstitution
Procedure: Indigo carmine powder was used to prepare a 1% solution in deionized (DI) water. Using IEIK13 (SEQ ID NO:2) powder, a 2 percent solution was prepared using DI water. The amount of IEIK13 (SEQ ID NO:2) was weighed out and the appropriate amount of DI water was added gently down the side of the container. Mixing was accomplished by vortexing for about 30 seconds, and then sonicating for 30 seconds. The solution was then centrifuged for about 10 to about 15 minutes at […]. The solution may undergo further vortexing and centrifuging until the solution is clear and without bubbles.
To obtain a final concentration of 0.00585% indigo carmine, the necessary amount of 1% IC is added to the appropriate amount of DI water to dilute 2% IEIK (SEQ ID NO:2) to 1.5% IEIK (SEQ ID NO:2). The solution is then vortexted for about 30 seconds and centrifuged for about 10 to about 15 minutes at 3000 rpm. The solution may undergo further vortexing and centrifuging until the solution is clear and without bubbles.
The solution was allowed to sit overnight at room temperature prior to use. The cap may be left off of the container during preparation to allow more efficient removal of bubbles.
Visualization of hydrogel spreading throughout the lumen of the lungs was necessary for determination of feasibility. Indigo Carmine was chosen as a common contrast reagent. […]

[4] = Rheological properties of 1% peptides before and after DMEM treatment for 2 minutes; details: peptides 1%; DMEM 2 minutes; compared with weaker peptide solutions (i.e., PuraMatrix)
Procedure: The effects of Dulbecco's modified Eagle's medium (DMEM) (pH 7.4) on the rheological properties of IEIK13 (SEQ ID NO:2), KLD12 (SEQ ID NO:3), and PuraMatrix® (SEQ ID NO:1) were evaluated on a rheometer (AR500, TA Instruments) with 40 mm plates. DMEM is generally a cell culture medium that contains 6.4 g/L of NaCl, 3.4 g/L NaHCO3 (sodium bicarbonate), minor amounts of other salts, various amino acids, and 4.5 g/L of glucose. The pH level of DMEM is generally 7.2±0.2 and the osmolality is 335±30 mOsm/Kg H2O; both measurements are close to human physiological fluids such as blood.
Peptide solutions (1%) were kept at 4° C. for at least 48 hours before testing. To perform the experiment, 1 mL of peptide solution was gently pipetted and placed on the plate of the rheometer. 2 mL of DMEM solution was gently added around the peptide solution. The peptide solution was treated with DMEM for two minutes, then the media was removed, and the plates were placed at a measuring geometry gap at around 450 μm. Measurements were performed at 37° C. after 2 min of relaxation time. Frequency tests were performed from 1 rad/s to 100 rad/s at 1 Pa of oscillation stress.
The rheological properties of the peptides (1%) were compared before and after DMEM treatment for 2 minutes, as shown in FIG. 1A. […]

Substance	gelation speed by anion ([1]; chloride)	gelation speed by anion ([1]; sulfate)	enhancement of stiffness by Ca compared to Na or K ([2]; 0.5% RADA16, chloride salts at the same molar concentrations)	stiffness with added cation solution versus without ([2]; 2.5% RADA16 with addition of 0.125 M CaCl2)	storage modulus ([2]; about 0.5 w/v percent, calcium chloride about 0.125 M)	storage modulus ([2]; about 0.5 w/v percent, calcium chloride about 0.250 M)	storage modulus ([2]; about 0.5 w/v percent, calcium chloride about 0.500 M)	storage modulus ([2]; about 2.5 w/v percent, calcium chloride about 0.125 M)	mechanical properties with versus without Indigo Carmine [3]	fold increase of storage modulus after DMEM treatment [4]
Arg-Ala-Asp-Ala-Arg-Ala-Asp-Ala-Arg-Ala-Asp-Ala-Arg-Ala-Asp-Ala [PuraMatrix ®]	quickest gelation	slowest gelation	best enhancement of stiffness	noticeable increase in stiffness	about 25 Pa	about 44 Pa	about 52 Pa	about 600 Pa		
Ile-Glu-Ile-Lys-Ile-Glu-Ile-Lys-Ile-Glu-Ile-Lys-Ile [IEIK13]									no significant difference	lower-fold increase

From patent publication US20220160939A1, “SELF-ASSEMBLING PEPTIDES AS BRONCHIAL OBSTRUCTION AGENTS” (3-D MATRIX, LTD., priority 2014, published 2022)
